Source: patent publication US20220002363A1, “COMPOSITIONS AND METHODS FOR TREATING PULMONARY DISEASE” (United States Government As Represented By The Department …, priority 2020, published 2022)
Positions count from the first letter of the chain named. “Also recorded” adds a separate entry of the source.

Assays:
WT-sFasL = target: T1, WT-sFasL (Homo sapiens, UniProt P48023); assay: Attenuation of WT-sFasL-induced caspase 3/7 activity in primary human small airway epithelial cells (SAEC); format: cell-based; conditions: for inhibitory effect on ability of WT-sFasL to induce caspase 3-7 activity: at higher molar ratios than in Jurkat
T1 construct: made in house
T1 sequence (P48023 103-281): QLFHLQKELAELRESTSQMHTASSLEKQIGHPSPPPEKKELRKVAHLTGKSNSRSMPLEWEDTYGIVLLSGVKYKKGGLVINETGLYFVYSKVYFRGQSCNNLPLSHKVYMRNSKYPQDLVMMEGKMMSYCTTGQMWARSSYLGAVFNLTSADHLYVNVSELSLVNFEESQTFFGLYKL
Experimental: FIGS. 2A-D show the mut-sFasL has inhibitory properties. Highly Fas-sensitive Jurkat cells (FIG. 2A), primary human lung small airway epithelial cells (SAEC, FIG. 2B) or murine lung epithelial cells (LA4, FIG. 2D) were incubated with serial dilutions of mutated FasL, (mut sFasL). […] As a confirmatory test, the experiment was repeated using SAEC and an annexin-V translocation assay (FIG. 2C). WT=wild type (no mutant). […] Each dot represents individual data; lines represent means±SD. *=P<0.05; **=P<0.01, ***P<0.001 when compared to WT. One way ANOVA with SIdak's post hoc analysis.
Small airway epithelial cells (SAEC) are primary human cells isolated from the 1-mm bronchiole area of normal human lung tissue, and were purchased from Lonza (Walkersville, Md., catalogue number CC-2547, lot number 0000669507). Cells used came from a single donor and confirmed mycoplasma-free by the vendor. Cells were grown at 37° C., 5% CO2 in small airway epithelial basal medium (SAGM, Lonza, Cat #CC-3119 CC-3119) supplemented with SAGM SingleQuots (Lonza, catalogue number CC-4124), and used between passages 2 and 4.
(§1) Measurements of apoptotic cascade activation. Apoptotic cascade activation was assessed by determining caspase 3/7 activity and Annexin V externalization. Caspase-3/7 activity was measured using a commercial substrate (Caspase-Glo 3/7 Assay, Promega, Madison, Wis., Cat #G8090) following manufacturer's instructions. Annexin V was measured with a luminescent commercial assay that allows for measurement of annexin V externalization in adherent cells (RealTime-Glo Annexin V assay, Promega, Madison, Wis., Cat #JA1011). Luminescence was measured with a Synergy H4 Microplate Reader (BioTek, Winooski, Vt.).
The mut-sFasL attenuates the activity of WT-sFasL. Then, the caspase 3/7 activity of Jurkat cells incubated with different molar ratios of WT and mut-sFasL was investigated. […] The molar mixtures on primary human small airway epithelial cells (SAEC) were tested. These cells are commercially isolated from the distal airways of human lungs. […]

[1] = target: T2, recombinant human soluble Fas (Homo sapiens, UniProt P25445); assay: Fas-FasL binding assay on wells coated with recombinant human soluble Fas; conditions: recombinant human Fas 5 μg/mL, detection with polyclonal anti-FasL antibodies
T2 construct: recombinant human soluble Fas receptors (PeproTech, Rocky Hill, N.J.); purchased PeproTech
T2 sequence (P25445 26-173 limits assumed): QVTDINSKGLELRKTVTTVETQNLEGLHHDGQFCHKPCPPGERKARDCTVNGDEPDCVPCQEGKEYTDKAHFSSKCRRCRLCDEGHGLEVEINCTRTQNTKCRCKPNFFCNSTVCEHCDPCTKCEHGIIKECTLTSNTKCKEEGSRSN
Experimental: (§2) The mixtures were incubated for 2 hours in 96-well plates pre-coated with recombinant hsFas (250 ng/ml). After washing unbound material, biotin was detected using HRP conjugated Streptavidin. […] The sFasL bound to Fas was detected using polyclonal anti-human FasL antibodies. […] Different molar ratios of the Fas-activating antibody CH-11 and mut-sFasL were added, and caspase 3/7 activity measured after 5 hours. […] Data represent the results from three separate experiments, each done in duplicate, and were analyzed by 2-way ANOVA with Sidak's post hoc analysis. […] Each dot represents individual data; lines represent means±SD. *=P<0.05; **=P<0.01, ***P<0.001.
(§3) Antibodies and Reagents. […] FLAG tagged mut-sFasL was detected using HRP anti-FLAG monoclonal antibody (Sigma-Aldrich, Cat #A85920). […]
WT-sFasL inhibition occurs prior to receptor binding. […] Recombinant human Fas at 250 ng/mL were coated and the binding of a fixed concentration of biotinylated WT-sFasL (70 ng/mL) were measured in the presence of serial 3-fold dilutions of either WT-sFasL or mut-sFasL. […] Serial dilutions of either WT-sFasL or mut-sFasL were incubated in wells coated with recombinant human Fas, 5 μg/mL, and after washing, detected sFasL bound to Fas using polyclonal anti-FasL antibodies. […]

Fas = target: T3, Fas (Homo sapiens, UniProt P25445); assay: Caspase 3/7 activity in Jurkat cells with Fas-activating antibody CH-11 and mut-sFasL at different molar ratios; format: cell-based; conditions: 5-hour incubation
T3 construct: host or cells: Jurkat (human leukemic T lymphocytes)
T3 sequence (P25445 26-335): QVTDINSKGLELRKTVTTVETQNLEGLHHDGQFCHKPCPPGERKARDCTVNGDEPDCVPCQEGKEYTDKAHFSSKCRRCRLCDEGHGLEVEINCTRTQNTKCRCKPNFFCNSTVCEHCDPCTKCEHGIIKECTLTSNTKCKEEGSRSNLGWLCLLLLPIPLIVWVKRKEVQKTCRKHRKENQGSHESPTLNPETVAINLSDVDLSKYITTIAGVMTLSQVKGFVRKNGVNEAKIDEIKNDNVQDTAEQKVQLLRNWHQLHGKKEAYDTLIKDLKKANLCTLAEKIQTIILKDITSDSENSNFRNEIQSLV
Experimental: as §2, §3
as §1, with “Vt.). […]” for “Vt.).”

B1: mut-sFasL: mutant sFasL molecule in which 8 charged amino acids in the 26 amino acid stalk region were changed to alanine (protein)
chain: T1 sequence (P48023 103-281) with H4A, K7A, E8A, E11A, R13A, E14A, H20A, E26A
- caspase 3/7 activity (WT-sFasL; WT:mut sFasL molar ratios of 1:27 and 1:81): significantly reduced caspase 3/7 activity
- inhibitory effect on ability of WT-sFasL to induce caspase 3-7 activity (WT-sFasL): inhibitory effect
- inhibitory effect on ability of WT-sFasL to induce caspase 3-7 activity (WT-sFasL; listed as 8-mutant protein): an inhibitory effect of the 8-mutant protein was detected
- binding curve to immobilized Fas relative to WT-sFasL [1]: shifted to the right, indicating decreased binding ability for Fas
- binding curve to immobilized Fas relative to WT-sFasL ([1]; listed as mut sFasL): shifted to the left
- effect on CH11 activity at very high molar ratios (Fas): increased CH11 activity
- effect on caspase 3/7 activation induced by CH11 (Fas; different molar ratios of mut-sFasL and antibody): did not attenuate the caspase 3/7 activation induced by CH11; also recorded: did not inhibit the activity of CH11
